From the supplement of paper PMC9170038

System: MS2 coat protein
Assay: apparent KD of MS2 coat protein; designed switch direction (-1 OFF switch, 1 ON switch): -1; higher = weaker reporter binding
Summary of the method: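 Each step of the titration lasted 0.8–1.5 h at the lowest concentration and 10–20 min at the highest. The protein, SNAP-549-labelled MS2 coat protein, went from 0.7 or 1.5 nM doubling to 3 µM over RNA switches transcribed on Illumina chips by stalled E. coli RNA polymerase. Normalised cluster fluorescence was curve-fitted, and the per-design median over clusters is given as apparent KD.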

[1] = Eterna round: R95, input ligand: FMN 200 uM
[2] = Eterna round: R95, input ligand: microRNA oligo, concentration not stated
[3] = Eterna round: R95, input ligand: none
[4] = input ligand: microRNA oligo, concentration not stated

Row | Sequence | apparent KD of MS2 coat protein [1] [nM] | apparent KD of MS2 coat protein [2] [nM] | apparent KD of MS2 coat protein [3] [nM] | apparent KD of MS2 coat protein (input ligand: FMN 200 uM) [nM] | apparent KD of MS2 coat protein [4] [nM] | apparent KD of MS2 coat protein (input ligand: none) [nM]
1 | GAUUAUGCGAGCUUUAGGGACAUGAGGAUCACCCAUGUUCGUCUUAUUGGUCUAGGUACACUAACAUACCUAAAUCU [JMF 19] (puzzle: Sensor v3, turn-off variant 1) | 20.4 | 38.9 | 21.3 | – | – | –
2 | GAUUAUGCGAGCUUUAGGGACAUGAGGAUCACCCAUGUUCGUCUUAUUGGUCUAGGUGCACUGACAUACCUAAAUCU [JMF 91] (puzzle: Sensor v3, turn-off variant 1) | 20.3 | 34.9 | 20.5 | – | – | –
3 | GAUUGACAUGAGGAUCACCCAUGUGAGGAUAUCGGCCGGACCUUGUUAGCUUCCAUCGCGAGAAGGCACAUAGG [Exclusion 1 V32] (puzzle: Exclusion 1) | – | 25.2 | – | – | – | –
4 | GAUUGACAUGAGGAUCACCCAUGUGAGGAUAUCGGCUGGACCGUGUUGGCUUCCGUCUCGAGAAGGCGCAUAGG [Exclusion 1 V43] (Eterna round: R96, puzzle: Exclusion 1) | – | – | – | 43.5 | 23.9 | 26.8
5 | GAUUGACAUGAGGAUCACCCAUGUGAGGAUAUCGGCUGGACCGUGUUGGCUUCCGUCUCGAGAAGGCGCAUAGG [Exclusion 1 V43] (puzzle: Exclusion 1) | 137 | 39.7 | 44.4 | – | – | –
6 | GAUUGAGCUGUUAGGAUAUCCGCAGGCCGCCUGGAGGAGAAGGAACAUGAGGAUCACCCAUGUGCACGGGAGGC [Xemaesti] (Eterna round: R97, puzzle: Brourd's mod of Exclusion 4) | – | – | – | 13.4 | – | 15.8
7 | GCAAAAUAUCAGGAUAUGACUAGCUGCGGCUAGUCAGAAGGGAUGACAUGAGGAUCACCCAUGUGAUCUCGUGU [JR_Ex6_Sub028] (Eterna round: R97, puzzle: Exclusion 6) | – | – | – | 487 | – | 177
8 | GCAAAGGUAGGAUAUCCACUGUGCAACAUGAGGAUCACCCAUGUGGUUCUUACCAUAAUUGGAGAAGGGCCGUGCA [Inrariri] (puzzle: Exclusion 5) | 19.7 | 19.3 | 24.2 | – | – | –
9 | GCAAAUCAUGUAGGAUAUGCGUGGCGAAGCUAUGCAGAAGGACAUGAGGAUCACCCAUGUGCUUCCGUCUGCGUACAGACGGUA [Mat - Exclusion NG 1 - Mod of JL - D18] (Eterna round: R96, puzzle: Exclusion NG 1) | – | – | – | 93.5 | 73.4 | 91.3
10 | GCAAGAAUAGGAUAUACACCAUGUCAGCUUCUAUACAACGCACAUGAGGAUCACCCAUGUAGAAGGGUUCUCUG [Exclusion-2-#10] (Eterna round: R97, puzzle: Exclusion 2) | – | – | – | 358 | – | 365
11 | GCAAGCGACUAGGCUCGUCUUAUAUUGAAAAGAUUGAAAACAUGAGGAUCACCCAUGUAUGUGGGAGAGUUGAAGUG [JR_SV3TOV2_Sub011] (puzzle: Sensor v3, turn-off variant 2) | 286 | 395 | 310 | – | – | –
12 | GCAAGCUUAAUCUGUAUGAACAUGAGGAUCACCCAUGUAUAAGGUAAUUCUGUUGGGUUUUUUAUUGCUCGUCUUAU [JR_STOV1_Sub026] (Eterna round: R97, puzzle: Sensor, turn-off variant 1) | – | – | – | 71.8 | – | 76.9
13 | GCAAGCUUUUGCUCGUCUUACAUGAGGAUCACCCAUGUCGGGUUCGGUCGUCGCGGCUGGGCUUGCCGGGCGCCGGG [-28.7, -55.8 kcal, A 10%] (Eterna round: R97, puzzle: Sensor, turn-off variant 1) | – | – | – | 215 | – | 244
14 | GCACAGGCAGGAUAUACAUGAGGAUCACCCAUGUGAUCCCUUAGGUACAAAAGUACAAGUAGAAGGGCCUGUGC [Omei Ex3 Model Bachelor's Dilema v45] (Eterna round: R97, puzzle: Exclusion 3) | – | – | – | 146 | – | 1460
